Results reported in patent publication US20260248897.

Experiments:
[1] = molecular target: RBD of SARS-CoV-2 (B lineage) (UniProt P0DTC2)
[2] = molecular target: RBD of SARS-CoV-2, on infectious virus (UniProt P0DTC2)
RBD of hCoV-229E = RBD of hCoV-229E (UniProt P15423)

| Substance | disulfide bond cleavage activity (remaining rate of native RBD; maleimide-PEG 2k, SDS-PAGE) [1] | antiviral activity (number of viral copies of SARS-CoV-2 in supernatant of infected airway organoids) [2] | disulfide bond cleavage activity (remaining rate of native RBD; maleimide-PEG 2k, SDS-PAGE) (RBD of hCoV-229E) |
| --- | --- | --- | --- |
| gene recombinant of human PDI (protein disulfide isomerase) | The order of the disulfide bond cleavage activity of the RBD from highest to lowest was PDI, ERp46, P5, ERp72, and ERp57. Among these, the disulfide bond cleavage activity of PDI was significantly high. | Both PDI and ERp46 inhibited the SARS-CoV-2 infection in a concentration-dependent manner. | The order of the disulfide bond cleavage activity of the RBD of hCoV-229E from highest to lowest was PDI, ERp46, P5, Erp57, and ERp72. Among these, the disulfide bond cleavage activity of PDI was significantly high. |
| gene recombinant of human ERp46 (thioredoxin domain containing 5) | The order of the disulfide bond cleavage activity of the RBD from highest to lowest was PDI, ERp46, P5, ERp72, and ERp57. | Both PDI and ERp46 inhibited the SARS-CoV-2 infection in a concentration-dependent manner. | The order of the disulfide bond cleavage activity of the RBD of hCoV-229E from highest to lowest was PDI, ERp46, P5, Erp57, and ERp72. |
